Data as given in patent publication US20220306729A1 (published 2022).

Assays:
[1] = target: WNV EDIII, polyhistidine-AviTag (West Nile virus); assay: ELISA on EDIII (Table A)
[2] = target: T1, DENV1 EDIII, polyhistidine-AviTag, made in HEK-293-6E cells (Dengue virus 1 (NC_001477)); assay: ELISA on EDIII (Table A)
T1 construct: also called EDIII of DENV1

[3] = target: ZIKV E protein on infectious virus, 2015 Puerto Rican PRVABC59 strain (Zika virus, strain PRVABC59); assay: cell-based or functional assay
[4] = target: ZIKV E protein (African strain MR766) on reporter viral particles (Zika virus, strain MR766, UniProt Q32ZE1 291-790); assay: cell-based or functional assay
ZIKV E protein (African strain MR766) on reporter viral particles, sequence (Q32ZE1 291-790 limits assumed): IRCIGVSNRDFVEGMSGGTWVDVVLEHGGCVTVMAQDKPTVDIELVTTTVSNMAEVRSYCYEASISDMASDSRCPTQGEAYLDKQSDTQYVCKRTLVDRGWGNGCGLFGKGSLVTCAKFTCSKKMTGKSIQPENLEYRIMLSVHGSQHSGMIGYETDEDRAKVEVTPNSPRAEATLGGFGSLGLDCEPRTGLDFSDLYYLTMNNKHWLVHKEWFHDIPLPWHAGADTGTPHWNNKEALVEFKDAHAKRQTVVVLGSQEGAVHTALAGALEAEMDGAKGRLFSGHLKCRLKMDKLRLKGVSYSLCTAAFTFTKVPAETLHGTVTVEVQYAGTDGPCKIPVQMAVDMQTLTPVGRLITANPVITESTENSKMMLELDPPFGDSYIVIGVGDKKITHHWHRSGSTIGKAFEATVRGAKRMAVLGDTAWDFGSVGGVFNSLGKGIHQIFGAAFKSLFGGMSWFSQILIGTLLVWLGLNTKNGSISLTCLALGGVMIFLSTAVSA

[5] = target: DENV1 E protein (strain PUO-359) on reporter viral particles or infectious virus (Dengue virus 1, strain PUO-359); assay: cell-based or functional assay
[6] = target: WNV EDIII, polyhistidine-AviTag (West Nile virus); assay: cross-reactivity ELISA on EDIII proteins
[7] = target: T2, DENV4 EDIII, polyhistidine-AviTag (Dengue virus 4, UniProt P09866 576-673); assay: cross-reactivity ELISA on EDIII proteins
T2 construct: domain: EDIII

[8] = target: T3, DENV3 EDIII, polyhistidine-AviTag (Dengue virus 3, UniProt Q6YMS4 575-672); assay: cross-reactivity ELISA on EDIII proteins
T3 construct: domain: EDIII

[9] = target: T4, ZIKV envelope domain III ([..]), polyhistidine-AviTag, made in HEK-293-6E cells (Zika virus (KJ776791)); assay: ELISA on ZIKV EDIII (Table A)
T4 construct: also called ZEDIII; ZIKV EDIII

T1 sequence (P17763 577-674, tags left off): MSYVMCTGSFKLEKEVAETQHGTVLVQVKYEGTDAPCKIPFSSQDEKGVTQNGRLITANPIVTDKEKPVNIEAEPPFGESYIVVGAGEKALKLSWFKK

B1: Z040 (BRA12_81) (antibody, V domains shown)
VH: EVQLLESGGGLVQPGGSLRLSCAASGFTFSTYAMSWVRQAPGKGLEWVSAISGSGRSTYYADSVKGRFTISRDNSKNTLYLQMNSLRGEDTAVYYCAKSSGGHNWNYVDYYYGMDVWGQGTTVTVSS
VL: DIQLTQSPSFLSASVGDRVTITCRASQGISSYLAWYQQKPGKAPKLLIYAASTLQSGVPSRFSGSGSGTEFTLTISSLQPEDFATYYCQQLNSYPVTFGPGTKVDIK
[1]
  binding result: no binding
[2]
  binding result: no binding

B2: Z021 (MEX84_p4-23) (antibody, V domains shown)
VH: QVQLQESGPGLVKPSETLSLTCTVSGGSIDTYYWSWIRQTPGKGLEWIGCFYYSVDNHFNPSLESRVTISVDTSKNQFSLKMTSMTASDTAVYYCARNQPGGRAFDYWGPGTLVTVSS
VL: EIVLTQSPATLSLSPGQRATLSCRASQSVSNYFAWYQQKPGQAPRLLIYDTSKRATGTPARFSGSGSGTDFTLTISSLEPEDFAVYYCQERNNWPLTWTFGLGTKVEIK
[3]
  IC50, plaque reduction neutralization assay (PRNT): 4 ng/mL
[4]
  IC50, ZIKV RVPs: 0.7 ng/mL
[5]
  IC50, DENV1 neutralization (flow cytometry): 10.1 ng/mL

B3: Z038 (BRA12_2) (antibody, V domains shown)
VH: EVQLLESGGGLVQPGGSLRLSCEASGFTFSNYAMNWVRQAPGKGLEWVSTLGATDNSGDSTYYVESAKGRFTISRDNSKNTLYLQMNSLRVEDTAVYFCAKDRTGNIGAGTGYFDKWGQGTLVTVSS
VL: DIQMTQSPSTLSASVGDRVTITCRASHRISGWLAWYQQKPGKAPKLLIYQASGLESGVPSRFSGSGYGTEFTLTISSLQADDFATYYCQQYNNYPWTFGQGTKVEIK
notes: also called BRA12_02
[6]
  binding result: no binding (tested: 10 µg/ml)
[7]
  binding result: no binding (tested: 10 µg/ml)
[8]
  binding result: no binding (tested: 10 µg/ml)

B4: Z006 (MEX105_42) (antibody, V domains shown)
VH: EVQLLESGGGLVQPGGSLRLSCAASGFTFKNYAMAWVRQAPGKGLEWVSLLYNSEESTYYADSVKGRFTISRDNSKNTLFLQMNRLRVEDTAVYFCVRDRSNGWSSINLWGRGTLVTVSS
VL: DIQMTQSPSTLSASVGDRVTMTCRASQTISGWLAWYQQKPGKAPKLLIYQASRLESGIPSRFSGSGSGTEFTLTISSLQPDDVATYYCQQYSTFWTFGLGTKVEIK
[6]
  binding result: no binding (tested: 10 µg/ml)
[7]
  binding result: no binding (tested: 10 µg/ml)
[8]
  binding result: no binding (tested: 10 µg/ml)

B5: Z010 (MEX105_88) (antibody, V domains shown)
VH: EVQLLESGGGLVQPGGSLRLSCAASGFTFSNYAMAWVRQAPGKGLEWVSLIYSGDDSTYYADFVKGRFTISRHNSKNTLSLQMNSLRAEDTAIYYCVKDRGTGWSSIVHWGQGTLVTVSS
VL: DIQMTQSPSTLSASVGDRVTITCRASQTISNWLAWYQQKPGKAPKLLIYQASSLESGVPSRFSGSGSGTEFTLTISSLQPDDFATYYCQQYSTYWTFGQGTKVEIK
[6]
  binding result: no binding (tested: 10 µg/ml)
[7]
  binding result: no binding (tested: 10 µg/ml)
[8]
  binding result: no binding (tested: 10 µg/ml)

B6: Z032 (BRA112_24) (antibody, V domains shown)
VH: EVQLLESGGRLVQPGGSLTLSCAASGFPFSTYAMSWLRQAPGKGLEWVSGITGDSGSTYYAASVKGRFTISRDNSKNTLYLQMNSLTADDTAVYYCAKDRLHSGLGELFSYWGQGTLVTVSS
VL: DIQMTQSPSTLSASVGDRVNITCRASQSINQWLAWYQQKPGKAPKFLMYKASTLETGVPSRFSGSGSGTEFTLTISSLQPDDFATYYCQHYFSYPWTFGQGTKVEIK
[9]
  EC50: 19.5 ng/mL

B7: Z035 (BRA112_71) (antibody, V domains shown)
VH: EVQLLESGGGLIQPGGSLRLSCAASGFTFSSYAMSWVRQAPGKGLEWVSGISGSGGASDNGASRYYADSVKGRFSISRDNSKNTVYLQMNSLRAEDTAVYYCAKDRLSGGFGELFQKWGQGTLVTVSS
VL: DIQMTQSPSTLAASVGDRVTITCRASQNINSWLAWYQQKPGKAPKFLIYKASTLESGAPSRFSGSGSGTEFTLTISSLQPDDFATYYCQHYYSYPYTFGQGTKVEIK
[6]
  binding result: no binding (tested: 10 µg/ml)
[7]
  binding result: no binding (tested: 10 µg/ml)
[8]
  binding result: no binding (tested: 10 µg/ml)

B8: Z054 (BRA138_94) (antibody, V domains shown)
VH: QLQLQESGPRLVKPSETLFLTCTVSGDSISSSSYFWGWIRQPPGKGLEWIGSISYSGSTYYNPSLKSRVTISVDTSKNQFSLKLSSVTAADTVVYYCAKHLYSSSWNIGSSFDSWGPGTLVTVSS
VL: EIVLTQSPATLSLSPGERATLSCRASQSVSIYLAWYQQKPGQAPRLLIYDASSRATGIPARFSGSGSGTDFTLTISSLEPEDFAVYYCQQRSNWPVYTFGQGTKVEIK
[1]
  binding result: no binding
[2]
  binding result: no binding

B9: Z004 (MEX18_89) (antibody, V domains shown)
VH: EVQLLESGGGLVQPGGSLRLTCATSGFTFRDYAMSWVRQAPGKGLEWVSSYSGIDDSTYYADSVKGRFTISRDNSKSTLSLHMNSLRAEDSALYFCAKDRGPRGVGELFDSWGQGTLVTVSS
VL: DIQMTQSPSTLSASVGDRVTITCRASQSISKWLAWYQQKPGKAPKLLIYTTSTLKSGVPSRFSGSGSGTEFTLTISSLQPDDFATYYCQHFYSVPWTFGQGTKVEIK
notes: also called biotin-Z004 (biotinylated form)
[6]
  binding result: no binding (tested: 10 µg/ml)
[7]
  binding result: no binding (tested: 10 µg/ml)
[8]
  binding result: no binding (tested: 10 µg/ml)
[3]
  IC50, plaque reduction neutralization test (PRNT): 2.2 ng/mL
[5]
  IC50, DENV1 luciferase RVPs: 1.6 ng/mL
  IC50, flow cytometry using authentic DENV1: 16.4 ng/mL

B10: Z001 (MEX18_21) (antibody, V domains shown)
VH: EVQLLESGGGLVQPGGSRRLSCATSGFSFDTYAMSWLRQAPGKGLEWVSSFSGLDDSTYYADSVKGRFTISRDNSKNTLYLQMNSLRAEDTAIYYCAKDRGPRGIGELFDFWGQGTLVTVSS
VL: DIQMTQSPSTLSASVGDRVTITCRASQSISRWLAWYQQKPGKAPKLLIYKTSTLKSEVPSRFSGSGSGTEFTLTISSLQPDDFATYYCQHFHSVPWTFGQGTKVEIK
[6]
  binding result: no binding (tested: 10 µg/ml)
[7]
  binding result: no binding (tested: 10 µg/ml)
[8]
  binding result: no binding (tested: 10 µg/ml)

B11: Z028 (MEX84_p4-53) (antibody, V domains shown)
VH: EVQLLESGGGLVQPGGSLRLSCAASGFTFSAYAMSWVRQAPGKGLEWVSSINGHSDSTYFADSVKGRFTISRDNSKNTLYLQMNSLRAEDTALYYCAKDRLREGIGELFHSWGQGTLVTVSS
VL: DIQMTQSPSTLSASIGDRVTITCRASQSITPWLAWYQQKPGKAPKFLIYQTSILESGVPSRFSGSGSGTEFTLTISSLQPDDFATYYCQHYHSYPWTFGQGTKVEIK
[6]
  binding result: no binding (tested: 10 µg/ml)
[7]
  binding result: no binding (tested: 10 µg/ml)
[8]
  binding result: no binding (tested: 10 µg/ml)

B12: Z044 (BRA138_46) (antibody, V domains shown)
VH: QVQLVQSGAEVKKPGASVKVSCKASGYTFTSTYIHWVRQAPGQGLEWMGIINPSSSNTNYAQKFQGRVTMTRDTSTSTVYMELSSLRSEDTAVYYCARDFGGYSSSSVSDAFDIWGQGTMVTVSS
VL: QSALTQPASVSGSPGQSITISCTGTSSDVGSFNLVSWYQQHPGKAPKLIIYEVSKRPSGVSNRFSGSKSGNTASLTISGLQAEDEVHYYCCSYAGSSRFVFGTGTKVTVL
[1]
  binding result: no binding
[2]
  binding result: no binding

B13: Z031 (BRA112_46) (antibody, V domains shown)
VH: EVQLLESGGGLVQPGGSLRLSCVASGFTFGSYGMAWVRQAPGKGLEWISSISSIDPSTYYADSVKGRFTVSRDNSENTLYLHMSSLKVEDTAVYFCAKDRLNGGFGELFASWGQGTLVTVSS
VL: DIQMTQSPSTLSASVGDSVTITCRASQSISSWLAWYQQKPGKAPKFLIHKASSLESGIPSRFSGSGSGTEFTLTINNLQPDDFATYYCQHYHSYPWTFGQGTKVEIK
[6]
  binding result: no binding (tested: 10 µg/ml)
[7]
  binding result: no binding (tested: 10 µg/ml)
[8]
  binding result: no binding (tested: 10 µg/ml)
